Measurements from the DeepSol protein solubility set.

Assay: soluble on expression in E. coli; label from the status in PepcDB or PDB records
For “MFEQIKNNVENAIEALKQGKPVVVLDDYDRENEGDLILPGQKATEENIAFMLEHTSGIICLAMDSKKARELNLTPMVAADQNNSTFTTPFTVTIEAKEGVTTGVSAKDRAHTIQVASKADSKAEELARPGHIFPLIANDKGVLGRNGHTEATVDLMKLSGFNSAGVLCELMNKDGTMMKAAELEAFAKKHDLPLLTIAELYQYRLATENFVTKMASSTIPFKKIGELEMSVYKDNFSGDEVVVLSKPYSGNNPLVRMHSSCITGDIFGSLRCDCQDQLHKGIEMISEEGGFFIYLDQEGRGIGLTNKLKAYNLQMNENMDTLEANLALGLPADARKYDLAIQVLKYNNVNRCRLISNNPEKLAALRNVDIETQPVYCEAFVNSHNRNYLITKKIKAKHTIKGI”, the “soluble on expression in E. coli” value was “not soluble”. For “GPGSMLVPGYGSHLLRFGSTWVYITRAEDPSKQKAAAANRVDRENDKLTLTFFTRRRAVVQQFMKHVQESWRANVRNTVHIYLSEGYGPRWHLLSERIRRPLSTLYLPADTKAVVEEARLFLRLKDTYAALGIPWRRGYLLEGPPGTGKTSFVMALAGELGLPVHILSLRSANMDDDALLSLTSSLPRRSILLIEDLENVLKTPPGAGRSALSSGASDTAAVAAAETSAASPASPYSTDIGGGPRSAMSLSALLNALDGVSSSEGRLLLITTNDTSRIPFAEVLLRPGRVDRRIRFQPLHVEQLREMEASFQQALQASPCSAVENPRLPSARPSAHEDDRSVACTPAQYQQRLLDAVYASLTSRPRAESK”, the “soluble on expression in E. coli” value was “not soluble”. For “MGSDKIHHHHHHKAFPLRTVFSEGIYYVCAEDLAPAGVGYIHSNGYHYIVYDNHVLFIKEHETIFDFVEKLSPPLFVDGLLFVPIDALKKVMEGYQMYTKGEKVLIYDSLPIVLSAAKEKNGVTITYTGTIVPDMVSVEKSMGRVRINLSPVVVSLPNVSEDIKVELEKNGLSFIVDVGNFYPDVEYSIGDGKLLFRFLLVEGFFGRLEVADGVVFERKIEEFDEGEKTVVNYLIMDPEKVTIKPVVSENGFGTIERLDEMVKRVGGIAGINGNYFDPVTKFPIGLVVIDGKPYSAMFSGRPVFAITEDNEVFIGRVIVDVTLMVKDVLFLVKGINTLGEGEVLVYTKEFSKEIPKKDDKIYFVVKDSKVSQIGYKSHAEDSEYVVSISKKYEEYLSDLKEGDEVYISLQPNIPLRIKQAVEGGPLLIQNGAPIPDAWEEKARYGGGIAYAKAPRTVIATKDGKLWFLVFEGYNHITRGLTYDELVDFLVSRGFEDAMCVDGGSSSVMAVAGSLFGRTENSTAAIPVGIVVWEKKKTEVGK”, the “soluble on expression in E. coli” value was “not soluble”. With “MRIVQATLEHLDLLAPLFVKYREFYGMLSYPESSRKFLEKRLRRKESVIYLALADEEDRLLGFCQLYPSFSSLSLKRVWILNDIYVAEEARRQLVADHLLQHAKQMARETHAVRMRVSTSVDNEVAQKVYESIGFREDQEFKNYTLPISDELS” the “soluble on expression in E. coli” value was “soluble”. With “GPGSMSTTSSPDEASCDVEKEGKGISPVTRTGKRFAECALMDLPDKYSSAFPYLRGARLFFFDVVSKLNRIGARNKRVVFVTDYTIGVASKRGHVSRCAKVEDISELICDAQTRALGVRMRSRPFAIVPKDFSRWNCFHEMPVDLLLHATSAAQYEALINVLSFVHHTSTHEALLCRSLKQYETWKASLVLAPDGSRVKKAVQYYAIPVTPSERSTDAATLSATRSQETSASLSAVRAPRQVALLSAGDSASRFTSGPDVSATAPKLRHWSSLGASSSFTPSGVGGHRTALGLSPFSLSPSPAPPLVEFSRDIEAVPTSATRRGVNPLLKADRKAPNAS” the “soluble on expression in E. coli” value was “not soluble”. With “MFRIASSSYSQFIASANPSIQTRCISIARIDQKIKRGNSDRRVIHAKKFTKQTDSPASVAGDGFILSKTFLQNAIAHQPPSGLTPVGRDGGRDEKKLILHPKEIVEHLNKYVVGQEEAKKYLAVAVYQHYRRVENNLRVTEQWMLSEAVAAAKERKKMRKQNPEEEEYYPEYVQKSQRQILKDLEKRQDMILDKSNMILLGASGTGKTFMTQKLAEVLDVPIVICDCTTLTQAGYVGDDVDTVIQKLLAEAMGDIEKCQRGIVFLDEFDKIYTSSDPLHTSGNRDVSGKGVQQALLKLVEGSLVKVRDPLAPNSKVTIDTSNILFIASGAFSNIEHIVARRMDKRLVTSLLFHFPQ” the “soluble on expression in E. coli” value was “not soluble”. With “MDNGTDSSTSKFVPEYRRTNFKNKGRFSADELRRRRDTQQVELRKAKRDEALAKRRNFIPPTDGADSDEEDESSVSADQQFYSQLQQELPQMTQQLNSDDMQEQLSATVKFRQILSREHRPPIDVVIQAGVVPRLVEFMRENQPEMLQLEAAWALTNIASGTSAQTKVVVDADAVPLFIQLLYTGSVEVKEQAIWALGNVAGDSTDYRDYVLQCNAMEPILGLFNSNKPSLIRTATWTLSNLCRGKKPQPDWSVVSQALPTLAKLIYSMDTETLVDACWAISYLSDGPQEAIQAVIDVRIPKRLVELLSHESTLVQTPALRAVGNIVTGNDLQTQVVINAGVLPALRLLLSSPKENIKKEACWTISNITAGNTEQIQAVIDANLIPPLVKLLEVAEYKTKKEACWAISNASSGGLQRPDIIRYLVSQGCIKPLCDLLEIADNRIIEVTLDALENILKMGEADKEARGLNINENADFIEKAGGMEKIFNCQQNENDKIYEKAYKIIETYFGEEEDAVDETMAPQNAGNTFG” the “soluble on expression in E. coli” value was “soluble”. With “GQDTGEDNLAIKGITTLNDLTMVNVSGPGMKGMVGMASRVFGAMSSAGVSIVLITQSSSEYSISFCIEADDKLKAQQVLADAFELELKDGLLEPVDFIDDVSIVTLVGDGMRTSRGVASRFFSSLAEVNVNIVAIAQGSSERAISAVIPEDKISEAIKACHENLFNSKYF” the “soluble on expression in E. coli” value was “not soluble”. In the case of “MAHHHHHHMMMMRPDAGRRGDRHEVTRSQWEMHNSVITDDAFLFPKMELMEELHKTQPWKKSPRYFQRVKVSVLAALQMMIHAKRGSPNVTCSNGSGVADSSAASMRNEPSRENWFEVMVLMLGHFNEDEMIVTSAFALPVDASEVECSMNDASQLYMLDFLQYHQRGGTQEGCIGWYHSHPGYTCFLSGTDVNTQQLGQTAQDPWLAIVVDPVRTISTGKLDMKAFRTFPEKYVAEQQGTSQHTQGKHWEGSTTSTWVPSERIREYGVHAHRYYELPITLVRSKDDEAQLECLWSRYWALTFCSNLFTANRKLMTKQIHQLAEVLESGVASRHQTMMKGDGYLPGHKLGSQHQRKGGGAVDDETPDGVEAFKQRSLHVRYLTSSLTSEAASGGNTAGGQKFRLSSMIFLLVLARVFLSF”, the “soluble on expression in E. coli” value is reported as “not soluble”. For “MKETDLAFFRSFKNRILKEINVMQLCRVVTVKGARADVQPMALKSDGGKRALILNALITKHCQSDISQGAVVVVVFCDRDIDNYRSSADYSLSSDRMHSQNDAVIMGVIA”, the “soluble on expression in E. coli” value was “not soluble”. With “MGSDKIHHHHHHMEETFQLLYDTYHQDLYQFLFYMVKDKNQTEDLLQEVYIRVLNSYHTFEGRSSEKTWLLSIARHVAIDWFRKQQTIRQRILGTFDWDTQDVRDQQLLPDELAVQHENVREISCALDQCTIDQRAVIILRFIQGYSIQETAKALRFSESKVKTTQHRGLKVLRKHMELLREELMDDEVRMERRTDKGVVKSTSGS” the “soluble on expression in E. coli” value was “not soluble”. With “MPQEKMARLYNLNYTIASQVNPHVVPFMQSDASRYRKDILSWPQRILRRQGKVISLGIMDFTRERLGNVPPVRRLLDHGYGIVGQRYYGDVNIIAPFNLRQYAYMLQNPRPHLFKLLQQQGERATWPKISAIETHARIGKTIQHCIEVLDYQKNRYIQAEKASALEHHHHHH” the “soluble on expression in E. coli” value was “not soluble”. With “MGSDKIHHHHHHMSKNVLIVSASPRKGGNSDLLCDQFIQGVLESKNQVEKIFLKDKDINYCTGCGACYEKEANCSQTDDMGEILEKMIGADVIVLATPVYFYTMNAQMKTMIDRTCSRYTEICDKDFYFIVTAADENVADMERTIEGFRGFTSCLNGSKEKGIVYGVGAWNVGDIKGSKAMKQAYEMGKLA” the “soluble on expression in E. coli” value was “not soluble”. In the case of “MGHHHHHHSHMAATSGTDEPVSGELVSVAHALSLPAESYGNDPDIEMAWAMRAMQHAEVYYKLISSVDPQFLKLTKVDDQIYSEFRKNFETLRIDVLDPEELKSESAKEKWRPFCLKFNGIVEDFNYGTLLRLDCSQGYTEENTIFAPRIQFFAIEIARNREGYNKAVYISVQDKEGEKGVNNGGEKRADSGEEENTKNGGEKGADSGEEKEEGINREDKTDKGGEKGKEADKEINKSGEKAM”, the “soluble on expression in E. coli” value is reported as “not soluble”. In the case of “MGSDKIHHHHHHMSNKKLIINADDFGYTPAVTQGIIEAHKRGVVTSTTALPTSPYFLEAMESARISAPTLAIGVHLTLTLNQAKPILPREMVPSLVDEAGYFWHQSIFEEKVNLEEVYNEWDAQIISFMKSGRRPDHIDSHHNVHGKNKKLLGVALALARKYQLPLRNASRSIETKDYLELYQDVRTPDEMLYQFYDKAISTETILQLLDMVVCSEGEVFEINCHPAFIDTILQNQSGYCMPRIREVEILTSQEVKEAIEERGILLANYESLAM”, the “soluble on expression in E. coli” value is reported as “not soluble”. With “MHYLSPLSLSLFLFCIEGHRESFSFFPSHDDGWAEPTARSEGKRERERERERERERGERGPTDTLSLSLSQFT” the “soluble on expression in E. coli” value was “not soluble”. For “MGSDKIHHHHHHMMDRAAIRQQARFELARRDFFYYCHLMASDFYKPSRRYLVELCNDLQGFLSDNEHNVLVINEPPRHGKSRTAGMFVQWLLGNDNDKKIMTGSYNETLSTVFSKNVRNAIQETKADEDVVVFNDIFPDTHIKYGDAAMNLWSLEGGYNNYLATSPTGTATGFGADIIIVDDLIKNAEEANNATVLEKHWEWFTNTMLSRLEEGGKIIIIMTRWHSQDLAGKALIELPKSDYKVKHISMKAYDEATDTMLCDEVLSKQAYLQKTKTMGADIASANYQQEPIDIKGRLYSGFKTYVDKPTFKRISAYTDTADTGKDYLASYIYGVTMDNEAYILDVVFTKEPMEVTEPLLAQKLAEWQVNTCDIESNNGGRGFARNVERLTQDSYQNRYTVFNWFHQSQNKQARILTNTTWAIEHIYFPENWRHRWSELYQNLMSYQREGKNAHDDAADALTGVVEAINDKIRTKAKVKRKSLYGL”, the “soluble on expression in E. coli” value was “not soluble”. With “MGSDKIHHHHHHEDPRGKLTPENFFSTQDELNMSIYALYQKVNLSQVYTNMQLPQWQGDDITTNPGSNKQPAAEMDKFAAANNNKGVKDAWNMHYAIVKAANLIIQGASKTPTTQDEINIALGQAKFWRAYAYFTLVRLWGPLPMNLDNVNDDYTKPLSPVEEVYGHIVQDLTEAEAVLPTGYSGSPRFLNGVNVYVTRQAAKSTLAAVYMAMAGWPMNKTEYYAKAAEKAKEVIEGVNRGEYEYKLDKDYKDVYAMSNNYNNETVLGINYSPFVDWAQDSELTSCNQFESLGGWGDAWGEIRFWKEFPDGPRKDATYDPKIRLKDGTLVDWWELKEDGTPVVPEHHPMFSIFSVNWDPASKVNTSAPYDYTKPASQNMCNDHRHRIIRYSEVLLWYAEAKARTGQTDELAFKCLNDVRERAGLEPLTGLSADDLAEAAYKEHGWEVAGYWVALVTRRADQFRMNRLKDTFKERAENTAVEVADGILVKESVEYTNRTWSDNLMYLPYPDMDSQKNPNLVR” the “soluble on expression in E. coli” value was “not soluble”. For “MLFELLYTSIAPAGLSDTELLSILEKARAKNQALDITGMLVYHNREIMQILEGEELKVRGLFQTIFQDERHTSVEVFYQGNIDHRAFSEWSMAFKLLDENTVKKMLIGYENFNPAKSPISMIASSPNRGKKTFLKLRDSL”, the “soluble on expression in E. coli” value was “soluble”. With “RHLVVPLNRLRDRADALRADELESTPLAAPLAARRDELGELAQALEHMAERLRLSLAQQRLLLRTLSHELRTPLARLRIAHDSELPPEQLRQRLDREIGDMQRLLEDTLDLAWMDTERPQLPTEPVLALSVWEALRDDACFESGWDPARLPCRLGVDCRVEVHLDSLAQAMENLLRNAIRHSPEDGTVSLDGEREGDFWHLRLQDQGPGVAEDQLERIFLPYQRLDDSAGEGFGLGLAIARRAIELQGGRLWASNGKPGLC” the “soluble on expression in E. coli” value was “not soluble”. For “SELLCHEVDPVRRAVRDRNLLRDDRVLQNLLTIEERYLPQCSYFKCVQKDIQPYMRRMVATWMLEVCEEQKCEEEVFPLAMNYLDRFLAGVPTPKSHLQLLGAVCMFLASKLKETSPLTAEKLCIYTDNSIKPQELLEWELVVLGKLKWNLAAVTPHDFIEHILRKLPQQREKLSLIRKHAQTFIALCATDFKFAMYPPSMIATGSVGAAICGLQQDEEVSSLTCDALTELLAKITNTDVDCLKACQEQIEAVLLNSLQQYRQDQRDGSKSEDELDQASTPTDVRDIDL”, the “soluble on expression in E. coli” value was “soluble”.
